Reference: patent US20250283030A1, “Biosynthesis of Phenylpropanoid Compounds” (BGENE GENETICS, priority 2021, published 2025)
Residue numbers refer to the chain shown, from its start. Names and notes keep the numbering of the source. “Also recorded” adds a separate entry of the source.

B1: P160L/Q164A: Pseudomonas putida AroF-I DAHP synthase with P160L/Q164A double mutation, SEQ ID NO:3 (protein, listed as Pseudomonas putida)
chain: LAAGTRDLTSNTMADLPIDDLNVASNETLITPDQLKKEIPLSAKALQTVTAGREVVRNILDGKDHRLFVVVGPCSIHDIKAAHEYAERLKVLAEEVSDTLYLVMRVYFEKPRTTVGWKGLINDPYLDDSFKIQDGLHIGRKLLLDLAEMGLPTATEALDLISPAYLQDLISWSAIGARTTESQTHREMASGLSSAVGFKNGTDGGLTVAINALQSVSKPHRFLGINQEGGVSIVTTKGNPYGHVVLRGGNGKPNYDSVSVALCEQDLAKAKIKANIMVDCSHANSNKDPALQPLVMENVANQILEGNQSIIGLMVESHLNWGCQSIPKNLDDLQYGVSITDACIDWSATEKTLRSMHAKLKDVLPQRKRGLAAGTRDLTSNTMADLPIDDLNVASNETLITPDQLKKEIPLSAKALQTVTAGREVVRNILDGKDHRLFVVVGPCSIHDIKAAHEYAERLKVLAEEVSDTLYLVMRVYFEKPRTTVGWKGLINDPYLDDSFKIQDGLHIGRKLLLDLAEMGLPTATEALDLISPAYLQDLISWSAIGARTTESQTHREMASGLSSAVGFKNGTDGGLTVAINALQSVSKPHRFLGINQEGGVSIVTTKGNPYGHVVLRGGNGKPNYDSVSVALCEQDLAKAKIKANIMVDCSHANSNKDPALQPLVMENVANQILEGNQSIIGLMVESHLNWGCQSIPKNLDDLQYGVSITDACIDWSATEKTLRSMHAKLKDVLPQRKRG
B2: P160L: Pseudomonas putida AroF-I DAHP synthase with P160L mutation, SEQ ID NO:2 (protein, listed as Pseudomonas putida)
chain: LAAGTRDLTSNTMADLPIDDLNVASNETLITPDQLKKEIPLSAKALQTVTAGREVVRNILDGKDHRLFVVVGPCSIHDIKAAHEYAERLKVLAEEVSDTLYLVMRVYFEKPRTTVGWKGLINDPYLDDSFKIQDGLHIGRKLLLDLAEMGLPTATEALDLISPQYLQDLISWSAIGARTTESQTHREMASGLSSAVGFKNGTDGGLTVAINALQSVSKPHRFLGINQEGGVSIVTTKGNPYGHVVLRGGNGKPNYDSVSVALCEQDLAKAKIKANIMVDCSHANSNKDPALQPLVMENVANQILEGNQSIIGLMVESHLNWGCQSIPKNLDDLQYGVSITDACIDWSATEKTLRSMHAKLKDVLPQRKRG
B3: P160L/S193A: Pseudomonas putida AroF-I DAHP synthase with P160L/S193A double mutation, SEQ ID NO:4 (protein, listed as Pseudomonas putida)
chain: B2 chain with S193A
B4: P160L/G191K: Pseudomonas putida AroF-I DAHP synthase with P160L/G191K double mutation (protein)
chain: B2 chain with G191K

How the values were obtained:
[1] = system: wild-type Pseudomonas putida AroF-I enzyme; assay: Enzymatic activity assay (PEP consumption by HPLC), inhibition by tyrosine; type: biochemical; details: 1 mM tyrosine, 300 μM PEP, 300 μM E4P, 60 minutes at 30° C., FIG. 1
Protocol: The activity of the enzymes is measured by monitoring the disappearance of the substrate using HPLC (High Pressure Liquid Chromatography) detection. The reaction is performed in a final volume of 200 μl with 40 mM of phosphate buffer, pH 7, 300 μM of phospho(enol)pyruvate (PEP), 20 μg of purified enzyme, 1 mM of tyrosine (or another aromatic amino acid) or 3 μM of HCl, the volume being completed with ultrapure water. After pre-incubation for 2 minutes at 30° C., the reaction is initiated by adding 300 μM of erythrose-4-phosphate […]) and the reaction mixture is incubated for 60 minutes at 30° C. Finally, the mixture is heated for 5 minutes at 80° C. in order to stop the reaction and precipitate the proteins. The enzymatic activity assays are firstly centrifuged for 10 minutes at 15 000×g in order to precipitate the proteins. The supernatant obtained is filtered over a 0.22 μm membrane before HPLC analysis. The method used is described below: • System: Agilent 1100 (Agilent) • Column: Luna OMEGA polar C18 (Phenomenex) • Mobile phase: 1 mM phosphoric acid • Flow rate: 0.3 ml/min • UV detection: 220 nm • Injection: 5 μl • Duration of analysis: 15 minutes In order to quantify the amount of PEP present in the samples, a series of standards is analyzed, with PEP concentrations from 0.1 mM to 1 mM.

[2] = system: AroF-I enzyme; assay: Enzymatic activity assay (PEP consumption by HPLC) of AroF-I mutants with or without tyrosine; type: biochemical, Pseudomonas putida; details: for resistance of the enzyme to inhibition by tyrosine: 1 mM tyrosine, PEP consumed compared to AroF-I WT, FIG. 2-4; for enzymatic activity (PEP consumed): in the presence or absence of tyrosine, FIG. 3
Protocol: In order to express and purify the AroF-I enzyme and the mutants derived therefrom, the corresponding genes are cloned in a pET28_b(+) plasmid with a His tag grafted to the N-terminal part of the protein (upstream of the gene's ATG).
The activity of the enzymes is measured by monitoring the disappearance of the substrate using HPLC (High Pressure Liquid Chromatography) detection.
The reaction is performed in a final volume of 200 μl with 40 mM of phosphate buffer, pH 7, 300 μM of phospho(enol)pyruvate (PEP), 20 μg of purified enzyme, 1 mM of tyrosine (or another aromatic amino acid) or 3 μM of HCl, the volume being completed with ultrapure water.
After pre-incubation for 2 minutes at 30° C., the reaction is initiated by adding 300 μM of erythrose-4-phosphate (E4P) and the reaction mixture is incubated for 60 minutes at 30° C.
Finally, the mixture is heated for 5 minutes at 80° C. in order to stop the reaction and precipitate the proteins.
The enzymatic activity assays are firstly centrifuged for 10 minutes at 15 000×g in order to precipitate the proteins. The supernatant obtained is filtered over a 0.22 μm membrane before HPLC analysis.
The method used is described below: • System: Agilent 1100 (Agilent) • Column: Luna OMEGA polar C18 (Phenomenex) • Mobile phase: 1 mM phosphoric acid • Flow rate: 0.3 ml/min • UV detection: 220 nm • Injection: 5 μl • Duration of analysis: 15 minutes
In order to quantify the amount of PEP present in the samples, a series of standards is analyzed, with PEP concentrations from 0.1 mM to 1 mM.

Row | Molecule | activity of the wild-type AroF-I enzyme in the presence of tyrosine [1] | resistance of the enzyme to inhibition by tyrosine [2] | enzymatic activity (PEP consumed) [2]
1 | N[C@@H](Cc1ccc(O)cc1)C(=O)O [tyrosine] | inhibited |  | 
2 | B1 |  | slightly improved | 
3 | B2 |  | partially resistant | 
4 | B3 |  | virtually completely resistant; also recorded: synergistic effect | restored virtually all the enzymatic activity
5 | B4 |  |  | no longer has any activity
